The test system of data set [1] is NCI-H146 (human small cell lung cancer) xenograft. The experiment in a line: NCI-H146 xenograft tumor growth inhibition. In kind it is in vivo, SCID-bg mice. To be noted: for Growth Inhibition TGImax (%): 10 mg/kg/day IP QDx1; for Response Frequency CR (%): 10 mg/kg/day IP QDx1, complete responders; for Response Frequency OR (%): 10 mg/kg/day IP QDx1, overall responders; for Response Frequency PR (%): 10 mg/kg/day IP QDx1, partial responders; for Growth Inhibition TGD (%): 10 mg/kg/day IP QDx1, tumor growth delay to 1 cm^3. On the procedure:
The in vivo efficacy of anti-CD98 hybridoma mAb conjugates were tested using Ab3-CZ and Ab5-CZ as examples in NCI-H146 (human small cell lung cancer) xenograft model. The two anti-CD98 hybridoma mAb, Ab3-CZ and Ab5-CZ, were conjugated to the Bcl-xL inhibitor synthon CZ according to Method A. NCI-H146 was obtained from the American Type Culture Collection (ATCC, Manassas, Va.). The cells were cultured as monolayers in RPMI-1640 culture media (Invitrogen, Carlsbad, Calif.) that was supplemented with 10% Fetal Bovine Serum (FBS, Hyclone, Logan, Utah). To generate xenografts, 5×10^6 (NCI-H146) viable cells were inoculated subcutaneously into the right flank of immune deficient female SCID-bg mice (Charles River Laboratories, Wilmington, Mass.). The injection volume was 0.2 mL and composed of Matrigel (BD, Franklin Lakes, N.J.). Tumors were size matched at approximately 212 mm^3. Antibodies and conjugates were formulated in phosphate buffered saline, pH 7.2 and injected intraperitoneally. […] Therapy began within 24 hours after size matching of the tumors. Mice weighed approximately 21 g at the onset of therapy. Tumor volume was estimated two to three times weekly. Measurements of the length (L) and width (W) of the tumor were taken via electronic caliper and the volume was calculated according to the following equation: V=L×W^2/2. Mice were euthanized when tumor volume reached 3,000 mm^3 or skin ulcerations occurred. Eight mice were housed per cage. Food and water were available ad libitum. Mice were acclimated to the animal facilities for a period of at least one week prior to commencement of experiments. Animals were tested in the light phase of a 12-hour light: 12-hour dark schedule (lights on at 06:00 hours). Anti-CD98 conjugates (10 mg/kg) were administered as a single dose (QD×1) intraperitoneally. A human IgG control antibody (MSL109, a humanized IgG1 antibody that binds to cytomegalovirus (CMV) glycoprotein H) was used as a negative control agent.
To refer to efficacy of therapeutic agents, parameters of amplitude (TGImax), durability (TGD) and response frequency (CR, PR, OR) of therapeutic response are used. The efficacy of inhibition of NCI-H146 xenografts growth with CD98-targeted ADCs is illustrated by Table 6, below. In the tables, to refer to efficacy, parameters of amplitude (TGImax) and durability (TGD) of therapeutic response are used. TGImax is the maximum tumor growth inhibition during the experiment. Tumor growth inhibition is calculated by 100*(1−Tv/Cv) where Tv and Cv are the mean tumor volumes of the treated and control groups, respectively. TGD or tumor growth delay is the extended time of a treated tumor needed to reach a volume of 1 cm^3 relative to the control group. TGD is calculated by 100*(Tt/Ct−1) where Tt and Cr are the median time periods to reach 1 cm^3 of the treated and control groups, respectively. Distribution of the response amplitude in a specific group is given by the frequency of complete responders (CR), partial responders (PR), and overall responders (OR). CR is the percentage of mice within a group with a tumor burden of 25 mm^3 for at least three measurements. PR is the percentage of mice within a group with a tumor burden larger than 25 mm^3 but less than one-half of the volume at onset of treatment for at least three measurements. OR is the sum of CR and PR.

The subject of data set [2] is EBC-1 (human lung squamous cell carcinoma) xenograft. As to the kind of experiment: EBC-1 xenograft tumor growth inhibition. To be noted: 10 mg/kg/day IP QDx1, SCID-bg mice. In kind it is in vivo.
Data set [3] in a line: Percent aggregates of ADC by size exclusion chromatography. It counts as physicochemical. To be noted: chAb3-CZ DAR2, DAR4 and broad DAR species (Table 12). The text has this:
Procedures for DAR and percent aggregate determination are described above in Example 5.
In general terms: Size exclusion chromatography separates by hydrodynamic size, large species first.

Marks after values point to notes of the source that are not given here.

Consider “MSL109: "a humanized IgG1 antibody that binds to cytomegalovirus (CMV) glycoprotein H", "used as a negative control agent" [reference compound]”, for which, in data set [1], the “Growth Inhibition TGImax (%)” value stood at 0%, the “Response Frequency CR (%)” value came to 0%, the “Response Frequency OR (%)” value is 0% and the “Response Frequency PR (%)” value came to 0%. Moreover, the “Growth Inhibition TGD (%)” value in data set [1] is 0%.

B1: ChAb13-CZ (conjugate)
VH: QVQLKESGPGLVQPSQTLSLTCTVSGFSLSSYGVIWVRQPPGKGLEWMGIIWANGNTNYNSALKSRLSISRDTSKSQVYLKMNSLQTEDTATYYCARHYYDGTHYYGYFDYWGQGVMVTVSS
VL: DTVMTQTPSSQAVSAGEKVTMSCKSSQSLLYSENKKKYLAWYQQKPGQSPKLLIYWASTRESGVPDRFIGSGSGTDFTLTISSVQAEDLAVYYCQQYYNFPYTFGAGTKLELK
B1: in data set [2], the “Growth Inhibition TGD (%)” value is recorded as 47* %, the “Growth Inhibition TGImax (%)” value is 61* %, the “Response Frequency CR (%)” value was 0% and the “Response Frequency OR (%)” value worked out at 0%. In addition, the “Response Frequency PR (%)” value in data set [2] is 0%.

B2: Ab3-CZ (conjugate)
VH: EVKLVESGGGLVQPGNSLRLSCATSGFTFIDYYMSWVRQSPGKALEWLGFIRNKANGYTTEYSASVKGRFTISRDNSQSILYLQMDTLRAEDSATYYCTRDRPAWFVYWGQGTLVTVSA
VL: DIVMSQSPSSLAVSVGEKVTMSCKSSQSLLYSSNQKNYLAWYQQKPGQSPKLLIYWASTRESGVPDRFTGSGSGTDFTLTFSSVRAEDLAVYYCQQYYSYPYTFGGGTKLEIK
B2: in data set [1], the “Growth Inhibition TGImax (%)” value was 79* %, the “Response Frequency CR (%)” value was 0%, the “Response Frequency OR (%)” value amounted to 50% and the “Response Frequency PR (%)” value is given as 50%. In data set [1], the “Growth Inhibition TGD (%)” value was 81* %.

B3: ChAb5-CZ (conjugate)
VH: EVKLVESGGGLVQPGGSLRLSCATSGFTFTDYYMTWVRQPPGKALEWLGFIRNKANGYTTEYSASVKGRFTISRDNSLSILYLQMNTLRAEDSATYYCARASYVNSEGWFAYWGQGTLVTVSA
VL: DIVMSQSPSSLAVSVGEKVTMSCKSSQSLLYSSNQKNYLAWYQQKLGQSPKLLIYWASTRESGVPDRFTGSGSGTDFTLTISSVKAEDLAVYYCQHYYSYPRTFGGGTKLEIK
B3: in data set [2], the “Growth Inhibition TGD (%)” value is 61* %, the “Growth Inhibition TGImax (%)” value is 70* %, the “Response Frequency CR (%)” value came to 0% and the “Response Frequency OR (%)” value was determined as 0%. Also, the “Response Frequency PR (%)” value in data set [2] came to 0%.

B4: ChAb3-CZ (conjugate)
VH: EVKLVESGGGLVQPGNSLRLSCATSGFTFIDYYMSWVRQSPGKALEWLGFIRNKANGYTTEYSASVKGRFTISRDNSQSILYLQMDTLRAEDSATYYCTRDRPAWFVYWGQGTLVTVSA
VL: DIVMSQSPSSLAVSVGEKVTMSCKSSQSLLYSSNQKNYLAWYQQKPGQSPKLLIYWASTRESGVPDRFTGSGSGTDFTLTFSSVRAEDLAVYYCQQYYSYPYTFGGGTKLEIK
Consider B4, for which, in data set [2], the “Growth Inhibition TGD (%)” value is on record as 37* %, the “Growth Inhibition TGImax (%)” value is on record as 54* %, the “Response Frequency CR (%)” value is listed as 0% and the “Response Frequency OR (%)” value came out at 0%. Also, the “Response Frequency PR (%)” value in data set [2] is listed as 0%.

B5: Ab5-CZ (conjugate)
VH: EVKLVESGGGLVQPGGSLRLSCATSGFTFTDYYMTWVRQPPGKALEWLGFIRNKANGYTTEYSASVKGRFTISRDNSLSILYLQMNTLRAEDSATYYCARASYVNSEGWFAYWGQGTLVTVSA
VL: DIVMSQSPSSLAVSVGEKVTMSCKSSQSLLYSSNQKNYLAWYQQKLGQSPKLLIYWASTRESGVPDRFTGSGSGTDFTLTISSVKAEDLAVYYCQHYYSYPRTFGGGTKLEIK
Take B5: in data set [1], the “Growth Inhibition TGImax (%)” value is recorded as 76* %, the “Response Frequency CR (%)” value is recorded as 0%, the “Response Frequency OR (%)” value was 0% and the “Response Frequency PR (%)” value is reported as 0%. In addition, the “Growth Inhibition TGD (%)” value in data set [1] was 76* %.

B6: ChAb3- CZ-DAR4 (conjugate)
VH: EVKLVESGGGLVQPGNSLRLSCATSGFTFIDYYMSWVRQSPGKALEWLGFIRNKANGYTTEYSASVKGRFTISRDNSQSILYLQMDTLRAEDSATYYCTRDRPAWFVYWGQGTLVTVSA
VL: DIVMSQSPSSLAVSVGEKVTMSCKSSQSLLYSSNQKNYLAWYQQKPGQSPKLLIYWASTRESGVPDRFTGSGSGTDFTLTFSSVRAEDLAVYYCQQYYSYPYTFGGGTKLEIK
In the case of B6, in data set [3], the “% Aggregates by SEC” value is on record as 13.8%.

B7: ChAb11-CZ (conjugate)
VH: EVQLVESGGGLVQPGRSLKLSCAASGFTFSDYAMAWVRQAPKKGLEWVAGIIYDGRGTYYRDSVKGRFTISRDNAKSTLYLQMDSLRSEDTATYYCARQGDGTYYYWGYFDYWGQGVMVTVSS
VL: DIVMTQSPSSLAVSAGETVTINCRSSQSLLSSGNQKNYLAWYQQKPGQSPKLLIYWASTRQSGVPDRFIGSGSGTDFTLTISSVQAEDLAIYYCQQYYDTPYTFGAGTKLELK
Turning to B7, in data set [2], the “Growth Inhibition TGD (%)” value was 37* %, the “Growth Inhibition TGImax (%)” value is recorded as 55* %, the “Response Frequency CR (%)” value came out at 0% and the “Response Frequency OR (%)” value is given as 0%. Also, in data set [2], the “Response Frequency PR (%)” value is listed as 0%.

B8: ChAb12-CZ (conjugate)
VH: EVQLVESGGGLVQPGRSLKLSCAASGFTFSDYAMAWVRQAPKKGLEWVASIIYDGRGTYYRDSVKGRFTISRDNAKSTLYLQMDSLRSEDTATYYCARQGDGTYYYWGSFDYWGQGVMVTVSS
VL: DIVMTQSPSSLAVSAGETVTINCKSSQSLLSSGNQKNYLAWYQQKPGQSPKLLIYWASTRQSGVPDRFIGSGSGTDFTLTISSVQAEDLAIYHCQQYYDTPYTFGAGTKLELK
With B8, in data set [2], the “Growth Inhibition TGD (%)” value is reported as 74* %, the “Growth Inhibition TGImax (%)” value is 76* %, the “Response Frequency CR (%)” value is on record as 0% and the “Response Frequency OR (%)” value is 25%. Moreover, the “Response Frequency PR (%)” value in data set [2] is 25%.

B9: ChAb8-CZ (conjugate)
VH: EVQLVESGGGLVQPGRSLKLSCAASGFTFSDYAMAWVRQAPKKGLEWVASIIYDGRGTYYRDSVKGRFTISRDNAKSTLYLQMDSLRSEDTATYYCARQGDGTYYYWGYFDYWGQGVMVTVSS
VL: DIVMTQSPSSLAVSAGETVTINCKSSQSLLSSGNQKNYLAWYQQKPGQSPKLLIYWASTRQSGVPDRFIGSGSGTDFTLTINSVQAEDLAIYYCQQYYDTPYTFGAGTKLELK
As for B9, in data set [2], the “Growth Inhibition TGD (%)” value is 42* %, the “Growth Inhibition TGImax (%)” value is 56* %, the “Response Frequency CR (%)” value is listed as 0% and the “Response Frequency OR (%)” value is reported as 0%. The “Response Frequency PR (%)” value in data set [2] stood at 0%.

B10: ChAb15-CZ (conjugate)
VH: EVQLVESGGGLVQPGRSLKLSCAASGFTFSDYTMAWVRQAPKKGLEWVATIIYDGRGTYYRDSVKGRFTISRDNAKSTLYLQMDSLRSEDTATYYCARQSDGTYYYWGYFDYWGQGVMVTVSS
VL: DIVMTQSPSSLAVSAGETVTINCKSSQSLLFSGNQKNYLAWYQQKPGQSPKLLIYWASTRQSGVPDRFIGSGSGTDFTLTIRSVQAEDLAIYYCQQYYDSPYTFGAGTKLELK
On to B10, for which, in data set [2], the “Growth Inhibition TGD (%)” value is reported as 74* %, the “Growth Inhibition TGImax (%)” value is recorded as 70* %, the “Response Frequency CR (%)” value was determined as 0% and the “Response Frequency OR (%)” value turned out to be 0%. Besides, the “Response Frequency PR (%)” value in data set [2] is given as 0%.

The record behind these values is patent US20230135723A1, “ANTI-CD98 ANTIBODIES AND ANTIBODY DRUG CONJUGATES” (AbbVie Inc., priority 2016, published 2023).
